# Where a chain is given by its changes, count along the chain named.
# B1: Ab-2 IgG1 (antibody, V domains shown)
# VH: EVQLVESGGGLIQPGGSLRLSCAASGFIVSSNYMSWVRQAPGKGLEWVSIIYSGGSTFYADSVKGRFTISRDNSKNTLYLQMNSLRVEDTAVYYCARDLQELGSLDYWGQGTLVTVSS
# VL: DIQMTQSPSSVSASVGDRVTITCRASQGISSWLAWYQQKPGKAPKLLIYAASSLQSGVPSRFSGSGSGTDFTLTISSLQPEDFATYYCQEANSFPYTFGQGTKLEIKR
# notes: also called 2A2A; C1S5-2A2A
# B2: Ab-3 (IgG1) (antibody, V domains shown)
# VH: QLQLQESGPGLVKPSETLSLTCTVSGGSISSTIYYWGWIRQPPGKGLEWIGSIYYSGNAYYNPSLKSRVTISVDTSKNQFSLMLNSVTASDTAVYYCATPHTRWGPDYWGQGTLVTVSS
# VL: NFMLTQPHSVSASPGKTVTVSCTRSSGSIASNYVLWYQQRPGSAPTTVIYEDDQRPSGVPDRFSASIDSSSNSASLTISGLKTEDEADYYCQSYDGDNLVFGGGTKLTVLG
# B3: Ab-1 (IgG1) (antibody, V domains shown)
# VH: B2 VH with T32S, M83K, S90A
# VL: B2 VL
# B4: Ab-4 (IgG1) (antibody, V domains shown)
# VH: QITLKESGPTLVKPTQTLTLTCTFSGFSLSTSGVGVGWIRQPPGKALEWLALIYWDDDKRYSPSLKSRLTITKDTSKNQVVLTMTNMAPVDTATYYCAHRLSNFWSGYYTGWGQGTLVTVSS
# VL: not shown
# B5: Ab-8 (antibody, V domains shown)
# VH: B1 VH with S25P
# VL: B1 VL
# B6: Ab-9 (antibody, V domains shown)
# VH: B1 VH with Y107C
# VL: B1 VL
# B7: Ab-6 (antibody, V domains shown)
# VH: QVQLVQSGAEVKKPGASVKVSCKVSGYTLTELSMHWVRQAPGKGLEWMGGFDPEDGETIYAQKFQGRVTMTEDTSTDTAYMELSSLRSEDTAVYYCATGHQLLFYNWFDPWGQGTLVTVSS
# VL: QSALTQPPSASGSPGQSVTISCTGTSSDVGGYNYVSWYQQHPGKAPKLMIYEVSKRPSGVPDRFSGSKSGNTASLTVSGLQAEDEADYYCSSYAGSNNLVFGGGTKLTVLG
# B8: Ab-7 (antibody, V domains shown)
# VH: EVQLVESGGGLVKPGGSLRLSCAASGFAFSSYTMNWVRQAPGKGLAWVSSISSSSDYIFYADSVKGRCTISRDNAKNSLSLQMNSLRAEDTAVYYCARGSNTAWGGVPDAFDFWGLGTVVTVSS
# VL: B7 VL with G31R, A82T
# Molecular target: T1, SARS-CoV-2 Spike S1+S2 ECD, his Tag protein (SARS-CoV-2, UniProt P0DTC2 14-1213)
# T1 construct: extracellular domain
# Experiment: binding to full-length S protein
row,Binder,EC50
1,B1,0.55 nM

# Molecular target: T2, SARS-CoV-2 S protein on pseudotyped virus (wild type) (SARS-CoV-2, UniProt P0DTC2 14-1273)
# Experiment: cell-based or functional assay
Binder,Pseudo-virus neutralization (Test 1) IC80,Pseudo-virus neutralization (Test 2) IC50,Pseudo-virus neutralization (Test 2) IC80
B1,2.11 nM,0.32 nM,1.29 nM
B2,23.2 nM,2.61 nM,10.4 nM
B3,16.3 nM,1.62 nM,6.48 nM

# Molecular target: T2, SARS-CoV-2 S protein on pseudotyped …
# Experiment: cell-based or functional assay
# Remark: another data set of the same source
Binder,Pseudo-virus neutralization IC50,Pseudo-virus neutralization IC90
B4,> 300 nM,> 300 nM
B1,0.53 nM,4.76 nM
B2,5.8 nM,52.2 nM
B3,4.07 nM,36.6 nM

# Molecular target: T1, SARS-CoV-2 Spike S1+S2 ECD, his Tag …
# Experiment: ELISA (FIG. 6)
row,Binder,binding result
1,B5,binds
2,B6,binds
3,B7,binds
4,B8,binds

# Molecular target: T1, SARS-CoV-2 Spike S1+S2 ECD, his Tag …
# Experiment: ELISA on His-tagged S1+S2 ECD (FIG. 7)
row,Binder,EC50
1,B1,0.021 nM

# Molecular target: T3, SARS-CoV-2 S1 protein (S1 fragment of the S protein) (SARS-CoV-2, UniProt P0DTC2 16-685)
# T3 construct: domain: S1
# Experiment: SPR negative control; as indicated by the domain ELISA
row,Binder,binding result
1,B4,no binding

# Molecular target: T1, SARS-CoV-2 Spike S1+S2 ECD, his Tag …
# Experiment: ELISA, coated S1+S2 ECD His
Binder,EC50,EC90
B4,14.2 nM,328 nM
B1,0.5 nM,2.56 nM
B2,0.5 nM,9.36 nM
B3,0.53 nM,6.03 nM

# Molecular target: SARS-CoV-2 Spike S1, mFc tag spike protein (SARS-CoV-2, UniProt P0DTC2 16-685)
# Experiment: not given
row,Binder,IC50
1,B4,> 300 nM
2,B1,3.78 nM
3,B2,10.6 nM
4,B3,11.1 nM
